Data: patent US12679878B2, “CRF2 receptor agonists and their use in therapy” (SANOFI, priority 2020, dated 2026)
Starred links: 1 amine or outer side, 2 acyl side, 3 side chain; linkers in the order of their positions; H or OH if unused. Non-standard residues stand in square brackets, D forms with d. Groups on a side chain read outwards from the residue. No end group written: not given here. *: point of attachment. C18 diacid = O=C(O)CCCCCCCCCCCCCCCCC(=O)*; γGlu = O=C(O)[C@H](CCC(=O)[*:2])N[*:1]; AEEA = NCCOCCOCC(=O)O; Aib = CC(C)(N)C(=O)O

Target: T1, CRF1R receptor (anti-target) (UniProt P34998 24-415, limits assumed)
T1 sequence (looked up): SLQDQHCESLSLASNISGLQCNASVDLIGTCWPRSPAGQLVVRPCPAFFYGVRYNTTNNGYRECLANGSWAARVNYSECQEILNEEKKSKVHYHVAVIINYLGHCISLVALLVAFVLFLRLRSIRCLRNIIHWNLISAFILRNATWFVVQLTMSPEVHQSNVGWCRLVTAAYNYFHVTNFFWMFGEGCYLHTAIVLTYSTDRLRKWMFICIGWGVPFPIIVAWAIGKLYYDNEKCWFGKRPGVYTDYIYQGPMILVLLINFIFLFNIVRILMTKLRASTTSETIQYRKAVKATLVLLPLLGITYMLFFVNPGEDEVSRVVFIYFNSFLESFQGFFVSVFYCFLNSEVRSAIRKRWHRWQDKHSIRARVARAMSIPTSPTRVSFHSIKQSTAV
Experiment: cell-based or functional assay

B1: peptide of SEQ ID NO: 119 (peptide)
peptide: IVLSLDVPIKLK([AEEA-AEEA-γGlu-C18 diacid])QILLKQERQKK[Aib]RQKAEKNKQILAQV-NH2
modifications: N-terminus assumed
SMILES: CC[C@H](C)[C@H](N)C(=O)N[C@H](C(=O)N[C@@H](CC(C)C)C(=O)N[C@@H](CO)C(=O)N[C@@H](CC(C)C)C(=O)N[C@@H](CC(=O)O)C(=O)N[C@H](C(=O)N1CCC[C@H]1C(=O)N[C@H](C(=O)N[C@@H](CCCCN)C(=O)N[C@@H](CC(C)C)C(=O)N[C@@H](CCCCNC(=O)COCCOCCNC(=O)COCCOCCNC(=O)CC[C@H](NC(=O)CCCCCCCCCCCCCCCCC(=O)O)C(=O)O)C(=O)N[C@@H](CCC(N)=O)C(=O)N[C@H](C(=O)N[C@@H](CC(C)C)C(=O)N[C@@H](CC(C)C)C(=O)N[C@@H](CCCCN)C(=O)N[C@@H](CCC(N)=O)C(=O)N[C@@H](CCC(=O)O)C(=O)N[C@@H](CCCNC(=N)N)C(=O)N[C@@H](CCC(N)=O)C(=O)N[C@@H](CCCCN)C(=O)N[C@@H](CCCCN)C(=O)NC(C)(C)C(=O)N[C@@H](CCCNC(=N)N)C(=O)N[C@@H](CCC(N)=O)C(=O)N[C@@H](CCCCN)C(=O)N[C@@H](C)C(=O)N[C@@H](CCC(=O)O)C(=O)N[C@@H](CCCCN)C(=O)N[C@@H](CC(N)=O)C(=O)N[C@@H](CCCCN)C(=O)N[C@@H](CCC(N)=O)C(=O)N[C@H](C(=O)N[C@@H](CC(C)C)C(=O)N[C@@H](C)C(=O)N[C@@H](CCC(N)=O)C(=O)N[C@H](C(N)=O)C(C)C)[C@@H](C)CC)[C@@H](C)CC)[C@@H](C)CC)C(C)C)C(C)C
For B1, which “EC50 [nM] 0% HSA (cAMP, HTRF)” value is on record?
The value was greater than 100 nM.

What about the “Emax (%) (100% = Sauvagine at 100 nM)” value of the same binder?
The value was 0.4%.

B2: peptide of SEQ ID NO: 118 (peptide)
peptide: IVLSLD[dV]PIKLK([AEEA-AEEA-γGlu-C18 diacid])QILLKQERQK[Aib]QRQKAEKNKQILAQV-NH2
modifications: N-terminus assumed
SMILES: CC[C@H](C)[C@H](N)C(=O)N[C@H](C(=O)N[C@@H](CC(C)C)C(=O)N[C@@H](CO)C(=O)N[C@@H](CC(C)C)C(=O)N[C@@H](CC(=O)O)C(=O)N[C@@H](C(=O)N1CCC[C@H]1C(=O)N[C@H](C(=O)N[C@@H](CCCCN)C(=O)N[C@@H](CC(C)C)C(=O)N[C@@H](CCCCNC(=O)COCCOCCNC(=O)COCCOCCNC(=O)CC[C@H](NC(=O)CCCCCCCCCCCCCCCCC(=O)O)C(=O)O)C(=O)N[C@@H](CCC(N)=O)C(=O)N[C@H](C(=O)N[C@@H](CC(C)C)C(=O)N[C@@H](CC(C)C)C(=O)N[C@@H](CCCCN)C(=O)N[C@@H](CCC(N)=O)C(=O)N[C@@H](CCC(=O)O)C(=O)N[C@@H](CCCNC(=N)N)C(=O)N[C@@H](CCC(N)=O)C(=O)N[C@@H](CCCCN)C(=O)NC(C)(C)C(=O)N[C@@H](CCC(N)=O)C(=O)N[C@@H](CCCNC(=N)N)C(=O)N[C@@H](CCC(N)=O)C(=O)N[C@@H](CCCCN)C(=O)N[C@@H](C)C(=O)N[C@@H](CCC(=O)O)C(=O)N[C@@H](CCCCN)C(=O)N[C@@H](CC(N)=O)C(=O)N[C@@H](CCCCN)C(=O)N[C@@H](CCC(N)=O)C(=O)N[C@H](C(=O)N[C@@H](CC(C)C)C(=O)N[C@@H](C)C(=O)N[C@@H](CCC(N)=O)C(=O)N[C@H](C(N)=O)C(C)C)[C@@H](C)CC)[C@@H](C)CC)[C@@H](C)CC)C(C)C)C(C)C
Which results are given for B2?
EC50 [nM] 0% HSA (cAMP, HTRF): > 100 nM; Emax (%) (100% = Sauvagine at 100 nM): 1.5%
